We go through two molecules from US20230103407A1 (UNIVERSITY OF CINCINNATI, published 2023).

Test [1] deals with T1, acid β-glucosidase (GCase), Velaglucerase alfa (human, UniProt P04062 40-536, Chain 1 is a glycoprotein with N-linked, mannose-terminated oligosaccharides, which the letters do not carry.).
T1 construct: also called free GCase; human GCase
T1 sequence: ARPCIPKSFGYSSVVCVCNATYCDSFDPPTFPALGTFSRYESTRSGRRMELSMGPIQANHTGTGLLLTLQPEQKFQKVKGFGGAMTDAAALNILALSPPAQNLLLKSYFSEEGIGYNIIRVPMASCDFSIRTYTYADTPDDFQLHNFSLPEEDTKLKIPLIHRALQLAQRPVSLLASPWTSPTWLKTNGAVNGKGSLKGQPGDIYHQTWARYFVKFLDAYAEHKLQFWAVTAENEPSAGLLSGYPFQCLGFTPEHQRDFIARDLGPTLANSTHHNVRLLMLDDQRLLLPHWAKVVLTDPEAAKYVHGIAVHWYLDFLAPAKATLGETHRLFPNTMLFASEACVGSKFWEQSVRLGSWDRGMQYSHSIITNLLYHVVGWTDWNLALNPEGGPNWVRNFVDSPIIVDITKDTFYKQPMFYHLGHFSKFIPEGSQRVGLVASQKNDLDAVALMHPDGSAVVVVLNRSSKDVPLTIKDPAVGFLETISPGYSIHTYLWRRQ
In words: microscale thermophoresis (MST), NBD-PS labelled vesicles, CP buffer pH 5.6. The procedure:
(§1) Binding was determined by measuring Kd using a Microscale Thermophoresis (MST) assay system on a Monolith NT.115. MicroScale NanoTemper. Temperature related intensity change (TRIC) together with thermophoresis contribution to the variation of fluorescence intensity was determined. NBD-PS [2-(4-nitro-2,1,3-benzoxadiazol-7-yl)aminoethyl-phophatidylserine (Avanti Polar Lipids Inc., Alabaster, Ala.) was used to fluorescently label DOPS. DOPS in chloroform was mixed with NBD-PS in DMSO at the molar ratio of 3:1. The organic solvent was evaporated under nitrogen gas. Upon suspension in CP buffer (0.1 M Citrate Phosphate buffer, pH 5.6), the mixture solutions were bath sonicated for 30 mins at 4° C. This preparation was tested with SapC or SapB to measure the Kd for binding to DOPS. […]
(§2) The final concentration of the reaction mixtures ranged from GCase/SapC-DOPS-NBD of 1562 nM/7500 nM for the 1st point to 0.024 nM/7500 nM for the 16th point (FIG. 16, Table 3). […] The thermophoresis time was 30 secs with dual reading setting (LED: 20%/40%; MST: 40%/50%). […] The raw data were analyzed to determine Kd values and plotted using MO Affinity Analysis v2.1.3 software (NanoTemper, München, Germany).
In general terms: Microscale thermophoresis detects binding through changes in fluorescence in a small temperature gradient.

Test [2] concerns the target T1, acid β-glucosidase (GCase), …. In words: microscale thermophoresis (MST); unlabelled GCase titrated against NBD-PS labelled SapC-DOPS, CP buffer pH 5.6. The procedure:
as §1, §2

The Kd is the free concentration of one partner at which half of the binding sites on the other are occupied at equilibrium, for simple one-to-one binding.

B1: saposin B (SapB)-DOPS (other, UniProt P07602 195-273, looked up)
chain: GDVCQDCIQMVTDIQTAVRTNSTFVQALVEHVKEECDRLGPGMADICKNYISQYSEIAIQMMMHMQPKEICALVGFCDE
notes: SapB formulated with DOPS at a 1:7 molar ratio and labelled with NBD-PS
Take B1: the binding result in test [1] is given as “no binding”.

B2: SapC-DOPS nanovesicles (saposin C with dioleoylphosphatidylserine) (other)
chain: SDVYCEVCEFLVKEVTKLIDNNKTEKEILDAFDKMCSKLPKSLSEECQEVVDTYGSSILSILLEEVSPELVCSMLHLCSG
Turning to B2, the Kd in test [2] came out at 29.4 nM.
